The supplement of paper PMC10567573

B1: SPDEF (parent)
chain: FQELAGKELCAMSEEQFRQRSPLG

Variants of: B1
Test: protein stability index of a GFP-peptide fusion (GPS, HEK-293T) (PSI 1-6); higher = more stable
Settings: c terminus: a fixed tail appended
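Further: lentivirally expressed fusions sorted by FACS into six bins by GFP to DsRed ratio, PSI derived from sequencing read proportions per bin multiplied by bin number.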

| Variant | protein stability index |
| --- | --- |
| FQELAGKERCAMSEEQFRQRSPLG [L9R] | 3.24 |
| FQELAGKESCAMSEEQFRQRSPLG [L9S] | 3.23 |
| FQELAGKETCAMSEEQFRQRSPLG [L9T] | 3.69 |
| FQELAGKEVCAMSEEQFRQRSPLG [L9V] | 2.71 |
| FQELAGKEWCAMSEEQFRQRSPLG [L9W] | 2.8 |
| FQELAGKEYCAMSEEQFRQRSPLG [L9Y] | 3.25 |
| FQELAGKELAAMSEEQFRQRSPLG [C10A] | 3.31 |
| FQELAGKELDAMSEEQFRQRSPLG [C10D] | 4.38 |
| FQELAGKELEAMSEEQFRQRSPLG [C10E] | 3.9 |
| FQELAGKELFAMSEEQFRQRSPLG [C10F] | 2 |
| FQELAGKELGAMSEEQFRQRSPLG [C10G] | 3.05 |
| FQELAGKELHAMSEEQFRQRSPLG [C10H] | 3.12 |
| FQELAGKELIAMSEEQFRQRSPLG [C10I] | 3.34 |
| FQELAGKELKAMSEEQFRQRSPLG [C10K] | 2.67 |
| FQELAGKELLAMSEEQFRQRSPLG [C10L] | 2.79 |
| FQELAGKELMAMSEEQFRQRSPLG [C10M] | 2.91 |
| FQELAGKELNAMSEEQFRQRSPLG [C10N] | 3.1 |
| FQELAGKELPAMSEEQFRQRSPLG [C10P] | 4.32 |
| FQELAGKELQAMSEEQFRQRSPLG [C10Q] | 3.46 |
| FQELAGKELRAMSEEQFRQRSPLG [C10R] | 3.12 |
| FQELAGKELSAMSEEQFRQRSPLG [C10S] | 3.4 |
| FQELAGKELTAMSEEQFRQRSPLG [C10T] | 3.52 |
| FQELAGKELVAMSEEQFRQRSPLG [C10V] | 2.93 |
| FQELAGKELWAMSEEQFRQRSPLG [C10W] | 1.9 |

| Variant | protein stability index |
| --- | --- |
| FQELAGKELYAMSEEQFRQRSPLG [C10Y] | 2.4 |
| FQELAGKELCCMSEEQFRQRSPLG [A11C] | 1.83 |
| FQELAGKELCDMSEEQFRQRSPLG [A11D] | 4.66 |
| FQELAGKELCEMSEEQFRQRSPLG [A11E] | 3.49 |
| FQELAGKELCFMSEEQFRQRSPLG [A11F] | 2.5 |
| FQELAGKELCGMSEEQFRQRSPLG [A11G] | 2.94 |
| FQELAGKELCHMSEEQFRQRSPLG [A11H] | 3.35 |
| FQELAGKELCIMSEEQFRQRSPLG [A11I] | 1.87 |
| FQELAGKELCKMSEEQFRQRSPLG [A11K] | 2.61 |
| FQELAGKELCLMSEEQFRQRSPLG [A11L] | 2.23 |
| FQELAGKELCMMSEEQFRQRSPLG [A11M] | 2.35 |
| FQELAGKELCNMSEEQFRQRSPLG [A11N] | 2.91 |
| FQELAGKELCPMSEEQFRQRSPLG [A11P] | 3.56 |
| FQELAGKELCQMSEEQFRQRSPLG [A11Q] | 3.55 |
| FQELAGKELCRMSEEQFRQRSPLG [A11R] | 2.52 |
| FQELAGKELCSMSEEQFRQRSPLG [A11S] | 2.31 |
| FQELAGKELCTMSEEQFRQRSPLG [A11T] | 2.31 |
| FQELAGKELCVMSEEQFRQRSPLG [A11V] | 1.94 |
| FQELAGKELCWMSEEQFRQRSPLG [A11W] | 2.83 |
| FQELAGKELCYMSEEQFRQRSPLG [A11Y] | 2.67 |
| FQELAGKELCAASEEQFRQRSPLG [M12A] | 3.57 |
| FQELAGKELCACSEEQFRQRSPLG [M12C] | 2.39 |
| FQELAGKELCADSEEQFRQRSPLG [M12D] | 3.83 |
| FQELAGKELCAESEEQFRQRSPLG [M12E] | 4.28 |

| Variant | protein stability index |
| --- | --- |
| FQELAGKELCAFSEEQFRQRSPLG [M12F] | 2.47 |
| FQELAGKELCAGSEEQFRQRSPLG [M12G] | 3.04 |
| FQELAGKELCAHSEEQFRQRSPLG [M12H] | 2.9 |
| FQELAGKELCAISEEQFRQRSPLG [M12I] | 2.46 |
| FQELAGKELCAKSEEQFRQRSPLG [M12K] | 3.3 |
| FQELAGKELCALSEEQFRQRSPLG [M12L] | 2.72 |
| FQELAGKELCANSEEQFRQRSPLG [M12N] | 3.3 |
| FQELAGKELCAPSEEQFRQRSPLG [M12P] | 2.38 |
| FQELAGKELCAQSEEQFRQRSPLG [M12Q] | 3.19 |
| FQELAGKELCARSEEQFRQRSPLG [M12R] | 3.34 |
| FQELAGKELCASSEEQFRQRSPLG [M12S] | 3.75 |
| FQELAGKELCATSEEQFRQRSPLG [M12T] | 3.4 |
| FQELAGKELCAVSEEQFRQRSPLG [M12V] | 2.83 |
| FQELAGKELCAWSEEQFRQRSPLG [M12W] | 1.79 |
| FQELAGKELCAYSEEQFRQRSPLG [M12Y] | 2.88 |
| FQELAGKELCAMAEEQFRQRSPLG [S13A] | 3.62 |
| FQELAGKELCAMCEEQFRQRSPLG [S13C] | 2.11 |
| FQELAGKELCAMDEEQFRQRSPLG [S13D] | 2.89 |
| FQELAGKELCAMEEEQFRQRSPLG [S13E] | 2.61 |
| FQELAGKELCAMFEEQFRQRSPLG [S13F] | 2.15 |
| FQELAGKELCAMGEEQFRQRSPLG [S13G] | 2.57 |
| FQELAGKELCAMHEEQFRQRSPLG [S13H] | 2.2 |
| FQELAGKELCAMIEEQFRQRSPLG [S13I] | 2.19 |
| FQELAGKELCAMKEEQFRQRSPLG [S13K] | 2.58 |

| Variant | protein stability index |
| --- | --- |
| FQELAGKELCAMLEEQFRQRSPLG [S13L] | 1.71 |
| FQELAGKELCAMMEEQFRQRSPLG [S13M] | 2.45 |
| FQELAGKELCAMNEEQFRQRSPLG [S13N] | 2.48 |
| FQELAGKELCAMPEEQFRQRSPLG [S13P] | 3.18 |
| FQELAGKELCAMQEEQFRQRSPLG [S13Q] | 2.62 |
| FQELAGKELCAMREEQFRQRSPLG [S13R] | 2.73 |
| FQELAGKELCAMTEEQFRQRSPLG [S13T] | 2.69 |
| FQELAGKELCAMVEEQFRQRSPLG [S13V] | 3.05 |
| FQELAGKELCAMWEEQFRQRSPLG [S13W] | 2.08 |
| FQELAGKELCAMYEEQFRQRSPLG [S13Y] | 2.4 |
| FQELAGKELCAMSAEQFRQRSPLG [E14A] | 2.28 |
| FQELAGKELCAMSCEQFRQRSPLG [E14C] | 2.46 |
| FQELAGKELCAMSDEQFRQRSPLG [E14D] | 2.89 |
| FQELAGKELCAMSFEQFRQRSPLG [E14F] | 2.22 |
| FQELAGKELCAMSGEQFRQRSPLG [E14G] | 2.21 |
| FQELAGKELCAMSHEQFRQRSPLG [E14H] | 2.47 |
| FQELAGKELCAMSIEQFRQRSPLG [E14I] | 1.8 |
| FQELAGKELCAMSKEQFRQRSPLG [E14K] | 2.15 |
| FQELAGKELCAMSLEQFRQRSPLG [E14L] | 2.3 |
| FQELAGKELCAMSMEQFRQRSPLG [E14M] | 2.03 |
| FQELAGKELCAMSNEQFRQRSPLG [E14N] | 2.81 |
| FQELAGKELCAMSPEQFRQRSPLG [E14P] | 2.38 |
